Experimental findings from the supplement of paper PMC9170038 are described below.

The series concerns MS2 coat protein. Nature of the series: apparent KD of MS2 coat protein; higher = weaker reporter binding. To be noted: Eterna round: R107. An outline of the steps:
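Titrations with SNAP-549-labelled MS2 coat protein ran in twofold steps from 0.7 or 1.5 nM to 3 µM, each step taking 0.8–1.5 h at the start and 10–20 min toward the end. The targets were designed RNA switches transcribed on-chip from Illumina sequencing clusters, held in 100 mM Tris-HCl pH 7.5, 80 mM KCl, 4 mM MgCl2, without or with constant ligand. Apparent KD was taken per design as the median of normalised cluster binding-curve fits.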

The mark [1] stands for this setting: input ligand: theophylline 20 uM.
[2] abbreviates: input ligand: theophylline 2 mM.
The mark [3] stands for this setting: input ligand: tryptophan 2.4 mM.

Regarding “AUACAUGAGGAUCACCCAUGUAUAGUUGAAGGAGCGACCAGAGGGUCAGGUAGGUCGCAGCGCAUGAGGUAAGCCCAUGUAUGCU [#1 Exclusion - Arginine A Attempt #16 (Inspired by Pi)]”, the “apparent KD of MS2 coat protein” value by setting is: (input ligand: arginine 13.2 mM) 22.7 nM; (input ligand: none) 22.8 nM; under setting [1], 44 nM; under setting [2], 70 nM; under setting [3], 17.2 nM.
Take “AUACAUGAGGAUCACCCAUGUCUUACGGAAGGAGCGAUCAAGAGAUCAGGUAGGUCGCCGUACAUGAGGAUCACCCAUGUAGGCG [EAA NP+V+V2 #9 DOUBLE]”: the “apparent KD of MS2 coat protein” value was determined as 19.5 nM (input ligand: arginine 13.2 mM); 32.3 nM (input ligand: none); 33.4 nM under setting [1]; 35.7 nM under setting [2]; 31.3 nM under setting [3].
“AUACAUGAGGAUCACCCAUGUUAUAGUGAAGGAGCGACAUUUAGGUCAGGUAGGUCGCACUAUUGAAUUAUUAUUCUCAGUUCUU [JR_ExcArginiA_Sub019]”: the “apparent KD of MS2 coat protein” value worked out at 14.2 nM (input ligand: arginine 13.2 mM); 13.2 nM (input ligand: none); 21.8 nM under setting [1]; 13.7 nM under setting [2]; 15.2 nM under setting [3].
The matching figures for “AUACAUGAGGAUCACCCAUGUUAUAGUGAAGGAGCGACAUUUAUGUCAGGUAGGUCGCACUGUUGUUUAAUGAUUCUUGGAUCUU [#20 Exclusion - Arginine A]”: 16 nM, 13.3 nM, 18.9 nM, 14.1 nM and 15.1 nM.
On to “AUAGUCUUGAGUGAUACCAGACUACAUGAGGAUCACCCAUGUUUCUUUUGGUUAUCAUGUGUCCCUUGGCAGCACGCAUGUAUAG [JR_ExcTheophyB_Sub014]”, for which the “apparent KD of MS2 coat protein” value was found to be 17.5 nM (input ligand: arginine 13.2 mM), 28 nM under setting [1] and 12.6 nM under setting [3].
Turning to “AUAUGGCGAGAUGAUACCAGACACAUGAGGAUCACCCAUGUUGAUGGUAAGUCUGCAUAUGUCCCUUGGCAGCAUAGCGACAUAU [X-TheoB-ms2@23]”, the “apparent KD of MS2 coat protein” value by setting is: (input ligand: arginine 13.2 mM) 8.63 nM; under setting [1], 11.9 nM; under setting [3], 8.34 nM.
For the sequence “AUAUUAAAGAGUGAUACCAGACUACAUGAGGAUCACCCAUGUUACAUUUAAAUAUCAUUUGUCCCUUGGCAGCACAUUAAGUACA [JR_Nu_ExcTheophyB_Sub022]”, the “apparent KD of MS2 coat protein” value reads like this: (input ligand: arginine 13.2 mM) 20.9 nM; under setting [1], 22.1 nM; under setting [3], 17.5 nM.
Consider “AUCAUGUAAUCAGAUACCAGACAUCUUUUAAUACAUAUUACAUGAGGAUCACCCAUGUUGGUCCCUUGGCAGCUGAAAUAUUUUU [JR_Nu_SSTheophyB_Sub027]”, for which the “apparent KD of MS2 coat protein” value was found to be 128 nM (input ligand: arginine 13.2 mM), 191 nM under setting [1] and 246 nM under setting [3].
The matching figures for “AUCGGCAGAAAAGAUACCAGAGUAAUACACAACAUGAGGAUCACCCAUGUACGGACAAUCCUCCCUUGGCAGCUUGUAACAGUAU [theeternabot_sameState_MS2_Theo_B_32]”: 37.4 nM, 63.8 nM and 48 nM.
The like results for “AUCGUACCUGAUGAUACCAGCAAGUGAUCAUAACAUGAGGAUCACCCAUGUAAUCAGUGAUGCCCUUGGCAGCAUAAUCGAUACA [Same State - Theophylline B (Freestyle 4)]” were, in that order, 91.6 nM, 204 nM and 164 nM.
In the case of “AUCGUACCUGAUGAUACCAGCAUGUGCUCGUAACAUGAGGAUCACCCAUGUGAUCAGUGAUGCCCUUGGCAGCAUGAUCGGUGCA [Same State - Theophylline B (Freestyle 18)]”, the “apparent KD of MS2 coat protein” value (input ligand: arginine 13.2 mM) is 94 nM, the “apparent KD of MS2 coat protein” value under setting [1] is 134 nM and the “apparent KD of MS2 coat protein” value under setting [3] was determined as 167 nM.
On to “AUGCAUAGCCGAAGGAGCGCAGUAGGAUGACAUGAGGAUCACCCAUGUGUGUGAUGUGGAUUGCAGGUAGGUCGCGGAGUGGUAU [Exclusion - Arginine B (Freestyle 5)]”, for which the “apparent KD of MS2 coat protein” value by setting is: (input ligand: arginine 13.2 mM) 47 nM; (input ligand: none) 119 nM; under setting [1], 128 nM; under setting [2], 119 nM; under setting [3], 58 nM.
As for “AUGGCGUUGGUGUAGCUGUGAAAUGGCGAUACCAGCGUGGAAACACGCCCUUGGCAGCGCCAAAACAUGAGGAUCACCCAUGUUA [Hradec]”, the “apparent KD of MS2 coat protein” value was 16.6 nM (input ligand: arginine 13.2 mM), 45.1 nM under setting [1] and 18.1 nM under setting [3].
Turning to “AUGGUAGGACAGCACAUAUAAGCUUGUGAUACCAGCUAGAAAACUAGCCCUUGGCAGCACAUUACAUGAGGAUCACCCAUGUCCC [EThA NP+V+V2 #1]”, the “apparent KD of MS2 coat protein” value runs as follows: (input ligand: arginine 13.2 mM) 44.1 nM; under setting [1], 68.6 nM; under setting [3], 50 nM.
The like results for “AUGUCAUUGGUGUAGCUGUGAAAUGGCGAUACCAGCGUGGAAACACGCCCUUGGCAGCGCCAAAACAUGAGGAUCACCCAUGUUA [Pardubice]” were, in that order, 36.2 nM, 135 nM and 80 nM.
Turning to “AUUAAUAAUAUGUAGACGGCGGAGAAGAGACGAGGACCGGUACGGCCGCCACUCGUGUUAGUUAACAUGAGGAUCACCCAUGUUA [#09 Tryptophan A Same State]”, the “apparent KD of MS2 coat protein” value came out at 9.55 nM (input ligand: arginine 13.2 mM); 11.8 nM (input ligand: none); 17.5 nM under setting [1]; 12.6 nM under setting [2]; 11.9 nM under setting [3].
In the case of “AUUCAUGGAAACAUGACAUACAUAUCCGGUCGAGGACCGGUACGGCCGCCACUCGUUUGGAGGCACAUGAGGAUCACCCAUGUUA [SS Tryp A #8]”, the “apparent KD of MS2 coat protein” value by setting is: (input ligand: arginine 13.2 mM) 21.3 nM; under setting [1], 34.4 nM; under setting [2], 25.9 nM.
Consider “AUUCCAUUGGUGCAGUUGUUAAAUGGCGAUACCAGCGUGGAAACACGCCCUUGGCAGCGCCAAAACAUGAGGAUCACCCAUGUUA [Havirov]”, for which the “apparent KD of MS2 coat protein” value reads like this: (input ligand: arginine 13.2 mM) 32.1 nM; under setting [1], 70.5 nM; under setting [3], 59.1 nM.
As to “AUUCUUUACUGAAGGAGCGUCAUUCUUACAUGAGGAUCACCCAUGUUUAUUCUUUAUGAUUGACAGGUAGGUCGCAGAUUUUUUA [#11 Same State - Arginine B]”, the “apparent KD of MS2 coat protein” value came to 19.5 nM (input ligand: arginine 13.2 mM); 17.8 nM (input ligand: none); 24.4 nM under setting [1]; 19 nM under setting [2]; 17 nM under setting [3].
Turning to “CAAUACGUAACUGAUACCAGUGUACUGACAUGAGGAUCACCCAUGUUGGGUUUUGUUGUACACCCUUGGCAGCAGAAUCGUAUUG [AstrosExyTheB#11]”, the “apparent KD of MS2 coat protein” value runs as follows: (input ligand: arginine 13.2 mM) 46.7 nM; under setting [1], 79.4 nM; under setting [3], 66.3 nM.
For “CACAUGAGGAUCACCCAUGUCUGAACUGAAGGAGCGCUAAAUAAGGCAGGUAGGUCGCGGAAUCGUGUGUGCAUAUGCACACGCG [9.U]”, the “apparent KD of MS2 coat protein” value (input ligand: arginine 13.2 mM) came to 17.8 nM; the “apparent KD of MS2 coat protein” value (input ligand: none) came to 24 nM; the “apparent KD of MS2 coat protein” value under setting [1] stood at 35.7 nM; the “apparent KD of MS2 coat protein” value under setting [2] came out at 25.3 nM; the “apparent KD of MS2 coat protein” value under setting [3] stood at 18 nM.
“CAUGUGAAAAUAAGAAGAAGAAGAAUAAAUCGAGGACCGGUACGGCCGCCACUCGUCGAAUCACAUGAGGAUCACCCAUGUAGCC [Tryptofun]”: the “apparent KD of MS2 coat protein” value by setting is: (input ligand: arginine 13.2 mM) 26.3 nM; under setting [1], 52.6 nM; under setting [2], 69 nM.
With “CCAUAGCUAGGAAGGAGCGCAUACUUCACAUGAGGAUCACCCAUGUCGAGACGUGAGUCAGUGCAGGUAGGUCGCCUAGCUAUGG [Same State - Arginine B (Freestyle 29)]”, the “apparent KD of MS2 coat protein” value is, setting by setting: (input ligand: arginine 13.2 mM) 18.1 nM; (input ligand: none) 18.6 nM; under setting [1], 24.2 nM; under setting [2], 25.5 nM; under setting [3], 20.6 nM.
With “CCCAAUUUCCGAGAUAUGGGUCCAACUAAACGAGGACCGGUACGGCCGCCACUCGACUACAAACAUGAGGAUCACCCAUGUAAAG [theeternabot_exclusion_MS2_Trp_A_40]”, the “apparent KD of MS2 coat protein” value reads like this: (input ligand: arginine 13.2 mM) 17.6 nM; under setting [1], 20 nM; under setting [2], 19.8 nM.
The matching figures for “CCCUCCAGAACGGCCGCCACUAAAGGGUUGUGUGCGACUCCGGAACAUGAGGAUCACCCAUGUCUUAGGACCGGGUUCCCUUCUA [theeternabot_sameState_MS2_Trp_B_30]”: 58.9 nM, 81.9 nM and 82.2 nM.
The matching figures for “CCGGCCAAUUAGAAAUUAAUUGGCCGGAAACGAGGACCGGUACGGCCGCCACUCGUGGCGGGAGAAACAUGAGGAUCACCCAUGU”: 23 nM, 54.7 nM and 53 nM.
As for “CCGGCCGCAUGAAGGAGCGCACAGCGCUCGCACAUGAGGAUCACCCAUGUAAAUGGGUGCGUGCAGGUAGGUCGCAUGCAGGCAA [Lesobete]”, the “apparent KD of MS2 coat protein” value is 133 nM (input ligand: arginine 13.2 mM); 313 nM (input ligand: none); 544 nM under setting [1]; 671 nM under setting [2]; 472 nM under setting [3].
For “CCGUUCUCUGCGGCCGCCACUCAAGGAGCUACAUAGCUCCUAGACAUGAGGAUCACCCAUGUCGCGAGGACCGGGUAGAUUCUCC [Same State Typptophan B GF9]”, the “apparent KD of MS2 coat protein” value worked out at 34.4 nM (input ligand: arginine 13.2 mM), 63.6 nM under setting [1] and 64.2 nM under setting [2].
The like results for “CCUAUGCAGUCGGCCGCCACUGAUAAAAUUAUUUUUACCUCAGAAACAUGAGGAUCACCCAUGUACAGGACCGGGACUGUAUAGG [Ex Tryptophan B 17]” were, in that order, 24.2 nM, 20.1 nM and 22.8 nM.
On to “CCUAUGCAGUCGGCCGCCACUGUACAUGAGGAUCACCCAUGUUCUAAUAUAAUAAGAACUGAAAUCAGGACCGGGACUGUAUAGG [Ex Tryptophan B 2]”, for which the “apparent KD of MS2 coat protein” value by setting is: (input ligand: arginine 13.2 mM) 1660 nM; (input ligand: none) 20.1 nM; under setting [1], 27.8 nM; under setting [2], 19.7 nM; under setting [3], 19.3 nM.
Take “CCUCAUGUGGUGCUGCACAUGAGAGGUGAUACCAGCAUCGAAAGAUGCCCUUGGCAGCACCAACAUGAGGAUCACCCAUGUAAUA [(M)'-(T)'-(M)''-(T1)-(T2)-(M1)-(M2)_Design1]”: the “apparent KD of MS2 coat protein” value (input ligand: arginine 13.2 mM) amounted to 27 nM, the “apparent KD of MS2 coat protein” value under setting [1] turned out to be 94 nM and the “apparent KD of MS2 coat protein” value under setting [3] turned out to be 25 nM.
The matching figures for “CCUGCGUUUCUUUUCUUUCGCAGGAAUGAUACCAGUAGGGAAACCUACCCUUGGCAGCAUGGGACAUGAGGAUCACCCAUGUAAU [SSThA NP+V+V2 #2]”: 255 nM, 346 nM and 408 nM.
In the case of “CCUUUUAUUAAUGAUACCAGCGUAUUAAGCAUCACCUUGGACAUGAGGAUCACCCAUGUACGCCCUUGGCAGCAUACCACUGGGU [theeternabot_exclusion_MS2_Theo_B_5]”, the “apparent KD of MS2 coat protein” value is, setting by setting: (input ligand: arginine 13.2 mM) 35.7 nM; under setting [1], 52.2 nM; under setting [3], 34.7 nM.
